Test results published in PMC5700991, “Cryo-EM structure of Saccharomyces cerevisiae target of rapamycin complex 2” (Nature Communications, 2017).

T1: Avo1 (S. cerevisiae, UniProt Q08236 1-1176)
T1 construct: Avo1 of S. cerevisiae (ortholog of hSin1); CRIM domain (residues 647-792 in the model; aa 638-786 in the methods), PH domain (aa 1076-1176); Poorly resolved in the map; only a homology model of the CRIM domain was fitted at a low contour level; source: endogenous, S. cerevisiae cell extract (Bit61-TAP strain lacking Bit2); purified as part of TORC2 on IgG-coated dynabeads, released with TEV …
T1 sequence (looked up): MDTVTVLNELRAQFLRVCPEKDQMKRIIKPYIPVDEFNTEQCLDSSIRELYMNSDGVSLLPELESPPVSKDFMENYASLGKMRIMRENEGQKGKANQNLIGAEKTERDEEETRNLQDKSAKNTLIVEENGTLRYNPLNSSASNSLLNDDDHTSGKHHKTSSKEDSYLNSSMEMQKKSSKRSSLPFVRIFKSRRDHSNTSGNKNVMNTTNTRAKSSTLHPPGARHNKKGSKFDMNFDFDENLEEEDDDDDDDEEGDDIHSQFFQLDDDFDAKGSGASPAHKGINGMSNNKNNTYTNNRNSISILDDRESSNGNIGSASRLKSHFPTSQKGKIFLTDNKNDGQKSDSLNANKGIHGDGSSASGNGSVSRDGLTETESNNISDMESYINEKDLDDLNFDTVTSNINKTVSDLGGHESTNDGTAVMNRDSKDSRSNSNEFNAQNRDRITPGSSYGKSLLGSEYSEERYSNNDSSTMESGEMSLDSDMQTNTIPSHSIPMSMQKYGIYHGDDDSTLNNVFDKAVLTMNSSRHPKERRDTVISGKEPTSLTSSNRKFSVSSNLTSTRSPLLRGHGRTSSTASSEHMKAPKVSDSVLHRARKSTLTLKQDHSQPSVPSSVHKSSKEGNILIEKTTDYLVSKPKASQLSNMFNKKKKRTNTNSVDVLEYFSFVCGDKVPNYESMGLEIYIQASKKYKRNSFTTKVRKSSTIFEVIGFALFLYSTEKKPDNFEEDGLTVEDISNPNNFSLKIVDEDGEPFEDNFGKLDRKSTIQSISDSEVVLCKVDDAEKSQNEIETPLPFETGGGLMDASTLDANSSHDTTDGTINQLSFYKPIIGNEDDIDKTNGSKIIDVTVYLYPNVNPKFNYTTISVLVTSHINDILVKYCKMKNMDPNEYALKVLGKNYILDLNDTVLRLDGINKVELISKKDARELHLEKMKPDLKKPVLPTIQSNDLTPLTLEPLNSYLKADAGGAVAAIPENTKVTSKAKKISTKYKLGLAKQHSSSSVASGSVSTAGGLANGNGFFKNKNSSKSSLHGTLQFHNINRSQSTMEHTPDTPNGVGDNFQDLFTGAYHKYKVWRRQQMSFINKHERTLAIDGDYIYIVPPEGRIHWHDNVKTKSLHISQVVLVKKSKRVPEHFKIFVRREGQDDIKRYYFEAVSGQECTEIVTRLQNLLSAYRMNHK

T2: Avo3 (S. cerevisiae, UniProt P40061 1-1430)
T2 construct: Avo3 of S. cerevisiae (ortholog of Rictor); armadillo-like helical domain in its middle part; Only 17 individual helices are modelled; they are not tied to residue numbers in the text; source: endogenous, S. cerevisiae cell extract (Bit61-TAP strain lacking Bit2); purified as part of TORC2 on IgG-coated dynabeads, released with TEV protease
T2 sequence (looked up): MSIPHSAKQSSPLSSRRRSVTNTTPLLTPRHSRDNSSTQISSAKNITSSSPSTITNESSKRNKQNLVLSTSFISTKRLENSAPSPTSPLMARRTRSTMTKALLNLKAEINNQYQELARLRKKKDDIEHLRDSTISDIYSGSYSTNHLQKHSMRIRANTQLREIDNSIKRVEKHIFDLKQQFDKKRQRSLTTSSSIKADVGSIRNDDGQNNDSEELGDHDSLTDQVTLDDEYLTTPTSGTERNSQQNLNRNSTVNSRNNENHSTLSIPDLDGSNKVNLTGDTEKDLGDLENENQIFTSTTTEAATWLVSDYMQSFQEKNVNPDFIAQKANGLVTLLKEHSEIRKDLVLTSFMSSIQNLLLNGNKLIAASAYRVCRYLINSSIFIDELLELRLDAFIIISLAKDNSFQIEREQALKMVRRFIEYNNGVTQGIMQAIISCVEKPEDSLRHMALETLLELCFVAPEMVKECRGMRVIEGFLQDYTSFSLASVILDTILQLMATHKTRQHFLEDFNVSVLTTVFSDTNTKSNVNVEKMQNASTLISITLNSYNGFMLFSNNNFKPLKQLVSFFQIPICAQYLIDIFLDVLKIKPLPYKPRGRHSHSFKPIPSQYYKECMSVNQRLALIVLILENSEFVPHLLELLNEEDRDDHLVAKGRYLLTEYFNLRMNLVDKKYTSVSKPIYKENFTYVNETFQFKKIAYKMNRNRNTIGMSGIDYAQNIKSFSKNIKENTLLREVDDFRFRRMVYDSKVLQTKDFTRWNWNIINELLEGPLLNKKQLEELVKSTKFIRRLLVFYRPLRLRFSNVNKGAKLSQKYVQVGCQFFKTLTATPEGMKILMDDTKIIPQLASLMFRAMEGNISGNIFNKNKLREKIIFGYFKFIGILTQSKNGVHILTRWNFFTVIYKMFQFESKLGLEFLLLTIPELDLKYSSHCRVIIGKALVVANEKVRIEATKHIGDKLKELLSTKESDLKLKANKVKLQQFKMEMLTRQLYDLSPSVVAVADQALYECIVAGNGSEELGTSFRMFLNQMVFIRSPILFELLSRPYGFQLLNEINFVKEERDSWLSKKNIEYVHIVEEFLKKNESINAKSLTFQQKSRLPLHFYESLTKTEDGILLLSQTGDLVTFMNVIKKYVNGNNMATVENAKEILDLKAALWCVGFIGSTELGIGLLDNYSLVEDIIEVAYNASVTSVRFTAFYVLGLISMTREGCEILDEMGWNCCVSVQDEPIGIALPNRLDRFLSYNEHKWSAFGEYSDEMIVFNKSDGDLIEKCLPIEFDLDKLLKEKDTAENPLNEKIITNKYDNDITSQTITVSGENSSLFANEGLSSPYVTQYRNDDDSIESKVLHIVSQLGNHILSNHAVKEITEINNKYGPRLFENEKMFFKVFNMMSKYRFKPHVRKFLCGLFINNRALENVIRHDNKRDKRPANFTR

B1: Bit61-TAP (natural protein, S. cerevisiae, UniProt P47041 1-543, looked up)
chain: MTAEDILLRERTSTTTQRPVNSEQYLNVQLATAPVKNFQTTSEISRQTLVDTSNDDVYSIKNLKGSRNPISPSVSNVGFQSIFHTVDHPRSKVSVASNHSLRSNDNASAATSKSGSSQIGESHSVDTVECSNNLSKKLSSDAISITQKSLHSTPSGRYMKGKASGFFNRRNRAHTTISSDPASFLTDSSTLHNSSHSFRNVIKNFFQNKSHRHIGQDAIEPAIPNSLSKFLHSSYGRHKSPSQFIHTNAGQLVDSGTSVYSLNVNPSGVNPNTIVEDPLSGTDPASPNPVSMLHDLLRNLPSLEANYKHFNSQELTTLTNNIWNIFCSNVAELFRTQRIWKLRAKIENFNEVLEFYCILKTDPRVTHSGMNRIISDLKEFLVSSLYNLENQIVFNYSNEDTINNALKRLGVIWRIFYQEVYYDLAAVLLPLDQSIREDGNSTVLKSGNESRTHINGNYSIGFLLLMCFRDSIVLPCYENFVNSNDGISKSFQLYIFNQEEESNVTETDKLTLLQCFGILSTIQSNDRNQRIIEELLAGIRMSI
notes: Bit61 of S. cerevisiae (ortholog of Protor), subunit of TORC2; The chain was captured by the protein A part of the TAP tag and set free with TEV protease; also called TAP-tagged Bit61; source: S. cerevisiae Bit61-TAP expressing strain lacking Bit2, cell extract; captured on IgG-coated dynabeads, released with TEV protease

Experiments:
Experiment in all cases: cryo-EM structure; TORC2 purified from S. cerevisiae extract by protein-A affinity purification of Bit61-TAP (IgG-coated dynabeads; 50 mM HEPES pH 7.5, 0.2 mM CHAPS, 300 mM KCl, 0.5 mM DTT wash; TEV release); single-particle cryo-EM, C2 symmetry, 7.9 Å overall; homology models fitted
Tor2 (S. cerevisiae) = Tor2 (S. cerevisiae) (UniProt P32600)
Tor2 = molecular target: T3, Tor2 (S. cerevisiae, UniProt P32600 1-2474); details: both partners purified
T3 construct: Tor2, Ser/Thr protein kinase of S. cerevisiae TORC2; HEAT repeats (spiral, bridge), FAT, FRB, kinase and FATC domains; Two copies stand in the TORC2 complex; The model in the map is a homology model built on the K. marxianus Tor-Lst8 structure; also called Sc Tor2; S. cerevisiae Tor2; source: endogenous, S. cerevisiae cell extract (Bit61-TAP strain lacking Bit2); purified as part of TORC2 on …
T3 sequence (P32600 whole entry, the tested form may be a part): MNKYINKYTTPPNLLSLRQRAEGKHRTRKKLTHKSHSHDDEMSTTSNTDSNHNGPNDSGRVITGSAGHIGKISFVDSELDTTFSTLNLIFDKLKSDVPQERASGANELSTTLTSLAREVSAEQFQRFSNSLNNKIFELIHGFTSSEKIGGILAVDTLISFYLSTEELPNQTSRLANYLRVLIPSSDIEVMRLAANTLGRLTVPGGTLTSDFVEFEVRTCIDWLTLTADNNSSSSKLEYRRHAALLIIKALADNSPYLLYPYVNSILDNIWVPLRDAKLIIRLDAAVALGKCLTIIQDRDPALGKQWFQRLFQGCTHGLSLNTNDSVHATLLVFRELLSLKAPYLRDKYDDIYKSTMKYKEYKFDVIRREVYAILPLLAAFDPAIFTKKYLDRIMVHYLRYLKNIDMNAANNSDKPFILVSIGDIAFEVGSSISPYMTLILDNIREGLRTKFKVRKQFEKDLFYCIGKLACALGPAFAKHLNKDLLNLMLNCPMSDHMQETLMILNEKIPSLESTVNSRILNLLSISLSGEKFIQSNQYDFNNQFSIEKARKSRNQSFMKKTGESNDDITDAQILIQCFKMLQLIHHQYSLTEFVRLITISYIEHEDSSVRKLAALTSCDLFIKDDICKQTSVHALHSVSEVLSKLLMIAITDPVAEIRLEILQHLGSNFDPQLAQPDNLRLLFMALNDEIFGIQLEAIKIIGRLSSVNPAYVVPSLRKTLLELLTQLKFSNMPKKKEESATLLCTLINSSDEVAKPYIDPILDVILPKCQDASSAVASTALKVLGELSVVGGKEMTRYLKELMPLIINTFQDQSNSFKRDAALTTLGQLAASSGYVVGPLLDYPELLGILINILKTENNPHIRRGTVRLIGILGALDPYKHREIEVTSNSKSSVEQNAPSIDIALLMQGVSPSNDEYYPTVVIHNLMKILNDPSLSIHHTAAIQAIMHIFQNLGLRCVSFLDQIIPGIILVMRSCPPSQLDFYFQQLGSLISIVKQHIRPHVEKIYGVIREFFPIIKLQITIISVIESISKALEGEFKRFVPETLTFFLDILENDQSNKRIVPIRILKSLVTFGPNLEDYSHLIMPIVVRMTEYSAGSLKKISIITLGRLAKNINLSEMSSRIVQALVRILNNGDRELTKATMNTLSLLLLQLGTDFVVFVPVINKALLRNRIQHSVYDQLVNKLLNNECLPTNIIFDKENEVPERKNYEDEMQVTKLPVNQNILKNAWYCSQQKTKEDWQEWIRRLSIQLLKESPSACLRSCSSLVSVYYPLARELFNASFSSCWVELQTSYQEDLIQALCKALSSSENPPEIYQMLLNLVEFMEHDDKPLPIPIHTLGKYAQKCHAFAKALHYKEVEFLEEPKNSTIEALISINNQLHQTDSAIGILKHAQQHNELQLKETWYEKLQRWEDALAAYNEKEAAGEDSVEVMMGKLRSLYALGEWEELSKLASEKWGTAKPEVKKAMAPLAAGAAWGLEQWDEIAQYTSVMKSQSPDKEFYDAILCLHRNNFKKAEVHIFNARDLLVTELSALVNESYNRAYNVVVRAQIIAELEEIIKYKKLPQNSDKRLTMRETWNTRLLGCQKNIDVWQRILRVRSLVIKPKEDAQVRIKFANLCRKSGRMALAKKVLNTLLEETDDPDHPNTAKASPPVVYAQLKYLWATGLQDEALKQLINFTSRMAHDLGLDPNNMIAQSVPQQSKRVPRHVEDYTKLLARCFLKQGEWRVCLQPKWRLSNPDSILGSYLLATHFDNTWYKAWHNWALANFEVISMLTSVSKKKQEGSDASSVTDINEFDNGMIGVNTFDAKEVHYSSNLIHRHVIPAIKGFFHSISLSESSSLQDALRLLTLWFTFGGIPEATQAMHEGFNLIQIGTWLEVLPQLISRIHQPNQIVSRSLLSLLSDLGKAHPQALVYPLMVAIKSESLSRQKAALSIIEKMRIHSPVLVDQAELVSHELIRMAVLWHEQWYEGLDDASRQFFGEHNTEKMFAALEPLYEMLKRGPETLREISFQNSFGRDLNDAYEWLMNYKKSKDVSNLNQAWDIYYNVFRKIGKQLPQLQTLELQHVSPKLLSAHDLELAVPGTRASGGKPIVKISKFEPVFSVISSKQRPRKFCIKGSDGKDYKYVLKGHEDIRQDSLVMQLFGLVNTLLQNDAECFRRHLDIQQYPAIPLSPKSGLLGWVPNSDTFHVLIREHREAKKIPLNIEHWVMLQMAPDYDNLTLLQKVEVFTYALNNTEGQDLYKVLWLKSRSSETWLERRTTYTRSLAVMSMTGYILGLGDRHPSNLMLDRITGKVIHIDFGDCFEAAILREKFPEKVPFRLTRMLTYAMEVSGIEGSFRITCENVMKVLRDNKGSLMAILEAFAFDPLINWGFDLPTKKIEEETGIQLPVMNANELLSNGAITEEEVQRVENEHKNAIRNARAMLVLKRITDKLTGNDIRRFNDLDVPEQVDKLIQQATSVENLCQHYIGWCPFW

Bit61-TAP = molecular target: B1; details: both partners purified
Avo1 = molecular target: T1, Avo1; details: both partners purified
Avo3 = molecular target: T2, Avo3; details: both partners purified

| Molecule | stoichiometry N (Tor2 (S. cerevisiae)) | binding result (Tor2) | binding result (Bit61-TAP) | binding result (Avo1) | binding result (Avo3) |
| --- | --- | --- | --- | --- | --- |
| Tor2, P32600 1-2474 | 2 | – | – | – | – |
| Avo2 (natural protein, S. cerevisiae, UniProt Q04749 1-426, looked up, Avo2 of S. cerevisiae; N-terminal five ankyrin repeats (residues 4-171; modelled aa 4-163); Only the ankyrin repeats are modelled in the map; source: endogenous, S. cerevisiae cell extract (Bit61-TAP strain lacking Bit2); purified as part of TORC2 on IgG-coated dynabeads, released with TEV protease) MLKEPSVRLREAIIEGNLLIVKRLLRRNPDLLTNIDSENGWSSLHYASYHGRYLICVYLIQLGHDKHELIKTFKGNTCVHLALMKGHEQTLHLLLQQFPRFINHRGENGRAPIHIACMNDYYQCLSLLIGVGADLWVMDTNGDTPLHVCLEYGSISCMKMLLNEGEVSLDDNVRDKGNWKPIDVAQTFEVGNIYSKVLKEVKKKGPPLGAGKKPSSFRTPILNAKATFEDGPSPVLSMNSPYSLYSNNSPLPVLPRRISTHTTSGNGGNRRSSITNPVFNPRKPTLSTDSFSSSSNSSSRLRVNSINVKTPVGVSPKKELVSESVRHSATPTSPHNNIALINRYLLPNKSNDNVRGDSQTATINDDGGGGNGGDATIGMGLRKDPDDENENKYKIKVNNGEPRRRVSLLNIPISKLRNSNNTRAED | – | binds | binds | – | – |
| B1 | – | binds | – | binds | binds |
| Lst8 (natural protein, S. cerevisiae, UniProt P41318 1-303, looked up, Lst8 of S. cerevisiae, composed entirely of WD40 repeats (beta propeller); Two copies stand in the TORC2 complex; source: endogenous, S. cerevisiae cell extract (Bit61-TAP strain lacking Bit2); purified as part of TORC2 on IgG-coated dynabeads, released with TEV protease) MSVILVSAGYDHTIRFWEALTGVCSRTIQHSDSQVNRLEITNDKKLLATAGHQNVRLYDIRTTNPNPVASFEGHRGNVTSVSFQQDNRWMVTSSEDGTIKVWDVRSPSIPRNYKHNAPVNEVVIHPNQGELISCDRDGNIRIWDLGENQCTHQLTPEDDTSLQSLSMASDGSMLAAANTKGNCYVWEMPNHTDASHLKPVTKFRAHSTYITRILLSSDVKHLATCSADHTARVWSIDDDFKLETTLDGHQRWVWDCAFSADSAYLVTASSDHYVRLWDLSTREIVRQYGGHHKGAVCVALNDV | – | binds | binds | binds | – |
